In patent US20230043577:

What was measured:
Experiment in all cases: EMSA
[1] = molecular target: MeCP2 MBD (hMeCP2[90-181]) wild type (Homo sapiens) (UniProt P51608)
[2] = system: MeCP2 MBD R133C R133C (Homo sapiens); settings: same buffer
[3] = system: MeCP2 MBD S134C S134C (Homo sapiens); settings: same buffer
[4] = 5mC in CpG of one strand, 5fC in the other
[5] = unmodified C in CpG of one strand, 5hmC in the other
[6] = 5mC in CpG of one strand, 5hmC in the other
[7] = 5hmC in CpG of one strand, 5fC in the other

Sequence of MeCP2 MBD (hMeCP2[90-181]) wild type (Homo sapiens) (P51608 90-181): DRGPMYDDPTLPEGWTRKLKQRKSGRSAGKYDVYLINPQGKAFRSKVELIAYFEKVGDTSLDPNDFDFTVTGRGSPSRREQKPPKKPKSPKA

With 24-mer mC/mC CpG duplex the Kd ([1]; 5mC in CpG on both strands, room temperature, 50 ng/uL poly(dA)poly(dT), 20 mM HEPES pH 7.3 buffer) was 27 nM, the Kd ([2]; 5mC in CpG on both strands) was 118 nM and the Kd ([3]; 5mC in CpG on both strands) was 117 nM.

24-mer mC/fC CpG duplex showed a Kd ([1]; 5mC in CpG of one strand, 5fC in the other, same buffer) of 197 nM, a Kd [2, 4] of 540 nM and a Kd [3, 4] of 790 nM.

With 24-mer C/hmC CpG duplex the Kd ([1]; unmodified C in CpG of one strand, 5hmC in the other, same buffer) was 1080 nM, the Kd [2, 5] was 8100 nM and the Kd [3, 5] was 7600 nM.

Work on 24-mer hmC/hmC CpG duplex yielded a Kd ([1]; 5hmC in CpG on both strands, same buffer) of 970 nM, a Kd ([2]; 5hmC in CpG on both strands) of 2560 nM and a Kd ([3]; 5hmC in CpG on both strands) of 7600 nM.

In the case of 24-mer mC/hmC CpG duplex, the Kd ([1]; 5mC in CpG of one strand, 5hmC in the other, same buffer) is reported as 224 nM, the Kd [2, 6] is reported as 660 nM and the Kd [3, 6] is reported as 1150 nM.

Work on 24-mer hmC/fC CpG duplex yielded a Kd ([1]; 5hmC in CpG of one strand, 5fC in the other, same buffer) of 540 nM, a Kd [2, 7] of 1630 nM and a Kd [3, 7] of 4600 nM.
